The text below walks through data of doi:10.1101/216812.

The target in the assay is biotinylated, taxol-stabilized microtubules tethered to coverslips (TIRF binding assays). Kind of assay: TIRF microscopy of single particles.

The substance “549SNAP-6HIS-3FLAG-KKT4 charge-reversal mutant (R123E, K132E, R154E), full length (natural protein)” showed a fold change of average residence time against wild-type KKT4 of 2 fold.

In turn, “549SNAP-6HIS-3FLAG-KKT4, full-length wild-type KKT4 (natural protein)” returned an average residence time of 5.4 s.
